Test results reported in IntAct's records for PubMed 29106382.

B1: Angiopoietin-1 (Homo sapiens), Q15389 (parent)
chain: MTVFLSFAFLAAILTHIGCSNQRRSPENSGRRYNRIQHGQCAYTFILPEHDGNCRESTTDQYNTNALQRDAPHVEPDFSSQKLQHLEHVMENYTQWLQKLENYIVENMKSEMAQIQQNAVQNHTATMLEIGTSLLSQTAEQTRKLTDVETQVLNQTSRLEIQLLENSLSTYKLEKQLLQQTNEILKIHEKNSLLEHKILEMEGKHKEELDTLKEEKENLQGLVTRQTYIIQELEKQLNRATTNNSVLQKQQLELMDTVHNLVNLCTKEGVLLKGGKREEEKPFRDCADVYQAGFNKSGIYTIYINNMPEPKKVFCNMDVNGGGWTVIQHREDGSLDFQRGWKEYKMGFGNPSGEYWLGNEFIFAITSQRQYMLRIELMDWEGNRAYSQYDRFHIGNEKQNYRLYLKGHTGTAGKQSSLILHGADFSTKDADNDNCMCKCALMLTGGWWFDACGPSNLNGMFYTAGQNHGKLNGIKWHYFKGPSYSLRSTTMMIRPLDF

Variants of: B1
Details: with tie2_human TEK

effect of a mutation on the interaction	Variant
with no effect	MTVFLSFAFLAAILTHIGCSNQRRSPENSGRRYNRIQHGQCAYTFILPEHDGNCRESTTDQYNTNALQRDAPHVEPDFSSQKLQHLEHVMENYTQWLQKLENYIVENMKSEMAQIQQNAVQNHTATMLEIGTSLLSQTAEQTRKLTDVETQVLNQTSRLEIQLLENSLSTYKLEKQLLQQTNEILKIHEKNSLLEHKILEMEGKHKEELDTLKEEKENLQGLVTRQTYIIQELEKQLNRATTNNSVLQRQQLELMDTVHNLVNLCTKEGVLLKGGKREEEKPFRDCADVYQAGFNKSGIYTIYINNMPEPKKVFCNMDVNGGGWTVIQHREDGSLDFQRGWKEYKMGFGNPSGEYWLGNEFIFAITSQRQYMLRIELMDWEGNRAYSQYDRFHIGNEKQNYRLYLKGHTGTAGKQSSLILHGADFSTKDADNDNCMCKCALMLTGGWWFDACGPSNLNGMFYTAGQNHGKLNGIKWHYFKGPSYSLRSTTMMIRPLDF [K249R]
